{"source": "paper PMC7199855", "about": "“GRAF2, WDR44, and MICAL1 mediate Rab8/10/11–dependent export of E-cadherin, MMP14, and CFTR ΔF508” (The Journal of Cell Biology, 2020)", "binders": {"B1": {"name": "GRAF2 SH3 (released from GST by Thrombin) (domain or fragment, human, UniProt A1A4S6 718-786, looked up)", "chain": "ATVADKPPESIRSRKARAVYPCEAEHSSELSFEIGAIFEDVQTSREPGWLEGTLNGKRGLIPQNYVKLL", "notes": "SH3 domain construct, aa 718–786 of human GRAF2; same construct as m2 with GST cut off; source: E. coli BL21(DE3) pLysS; released from GST-GRAF2 SH3 beads with Thrombin; not shown: GST, N-terminal, cleaved"}}, "key": {"GST–MICAL1 ΔMOΔCH": {"molecular_target": "T1, GST–MICAL1 ΔMOΔCH (human, UniProt Q8TDZ2 651-1067)", "T1 construct": "aa 651–1067 of human MICAL1; source: E. coli BL21(DE3) pLysS, purified on glutathione sepharose beads; not shown: GST, N-terminal, kept", "T1 sequence (looked up)": "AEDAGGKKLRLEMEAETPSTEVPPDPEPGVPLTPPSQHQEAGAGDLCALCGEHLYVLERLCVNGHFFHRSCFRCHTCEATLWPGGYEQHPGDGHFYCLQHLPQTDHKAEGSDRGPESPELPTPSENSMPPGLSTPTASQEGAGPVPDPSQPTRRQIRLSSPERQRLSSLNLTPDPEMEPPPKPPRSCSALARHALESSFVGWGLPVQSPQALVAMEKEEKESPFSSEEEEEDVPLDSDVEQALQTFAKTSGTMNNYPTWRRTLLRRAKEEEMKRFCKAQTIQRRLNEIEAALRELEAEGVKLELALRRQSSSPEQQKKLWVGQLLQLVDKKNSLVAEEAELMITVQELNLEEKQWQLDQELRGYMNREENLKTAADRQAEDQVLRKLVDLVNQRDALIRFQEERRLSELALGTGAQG", "experiment": "pull-down; in vitro: GST-tagged WDR44 or MICAL1 domains on glutathione sepharose beads with an equal amount of Thrombin-released GRAF2 SH3, 30 min 4°C, washed in bacterial lysis buffer (20 mM Hepes pH 7.4, 1 mM DTT, NaCl); Coomassie staining", "details": "both partners purified"}, "GST–WDR44 ΔC": {"molecular_target": "T2, GST–WDR44 ΔC (human, UniProt Q5JSH3 1-472)", "T2 construct": "aa 1–472 of human WDR44 (N-tag clone: forward primer begins at codon 2); source: E. coli BL21(DE3) pLysS, purified on glutathione sepharose beads; not shown: GST, N-terminal, kept", "T2 sequence (looked up)": "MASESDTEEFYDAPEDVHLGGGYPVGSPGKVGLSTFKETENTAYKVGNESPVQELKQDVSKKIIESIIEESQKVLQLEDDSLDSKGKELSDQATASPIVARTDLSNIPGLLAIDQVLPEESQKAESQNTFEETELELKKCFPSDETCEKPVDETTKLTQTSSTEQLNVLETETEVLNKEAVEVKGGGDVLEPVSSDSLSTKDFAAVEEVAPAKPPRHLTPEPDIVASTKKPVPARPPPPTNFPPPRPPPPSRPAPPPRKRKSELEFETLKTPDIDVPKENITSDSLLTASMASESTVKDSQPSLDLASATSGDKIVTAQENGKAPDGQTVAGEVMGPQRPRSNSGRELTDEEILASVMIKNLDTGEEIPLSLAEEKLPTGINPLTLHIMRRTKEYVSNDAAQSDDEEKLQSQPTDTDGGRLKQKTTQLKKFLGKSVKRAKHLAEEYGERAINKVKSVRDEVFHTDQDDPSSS", "experiment": "pull-down; in vitro: GST-tagged WDR44 or MICAL1 domains on glutathione sepharose beads with an equal amount of Thrombin-released GRAF2 SH3, 30 min 4°C, washed in bacterial lysis buffer (20 mM Hepes pH 7.4, 1 mM DTT, NaCl); Coomassie staining", "details": "both partners purified"}}, "data": [{"binder": "B1", "values": [{"measurement": "binding result", "setting": "GST–MICAL1 ΔMOΔCH", "value": "binds"}, {"measurement": "binding result", "setting": "GST–WDR44 ΔC", "value": "binds"}]}]}
